Measured values: IntAct's records for PubMed 16628218

Biological target: T1, chio_human CHN2 (UniProt P52757)
T1 sequence: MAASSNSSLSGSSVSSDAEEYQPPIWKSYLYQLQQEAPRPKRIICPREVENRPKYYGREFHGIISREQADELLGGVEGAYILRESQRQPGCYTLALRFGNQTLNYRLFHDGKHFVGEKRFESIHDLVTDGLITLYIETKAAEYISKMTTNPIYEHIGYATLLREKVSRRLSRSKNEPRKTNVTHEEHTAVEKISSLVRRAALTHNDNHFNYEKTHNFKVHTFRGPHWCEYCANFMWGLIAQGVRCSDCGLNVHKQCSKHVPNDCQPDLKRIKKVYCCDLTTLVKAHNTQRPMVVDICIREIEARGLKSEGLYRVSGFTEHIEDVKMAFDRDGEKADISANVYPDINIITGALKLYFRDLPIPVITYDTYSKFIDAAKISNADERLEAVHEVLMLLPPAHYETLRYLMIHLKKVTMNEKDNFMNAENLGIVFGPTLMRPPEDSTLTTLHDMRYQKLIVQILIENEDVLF

Substance: Ras-related C3 botulinum toxin substrate 1 (Homo sapiens) (from UniProt P63000) T17N
- effect of a mutation on the interaction: disrupting interaction

Substance: Ras-related C3 botulinum toxin substrate 1 (Homo sapiens) (from UniProt P63000) G12V
- effect of a mutation on the interaction: increasing interaction
